Laboratory results: US20160159872A1

How the values were obtained:
[1] = target: 6xHis-CtBP (UniProt Q13363); assay: competition assay of the CtBP/E1A interaction, FIG. 3
[2] = target: 6xHis-CtBP (UniProt Q13363); assay: competition assay of the CtBP-E1A interaction (AlphaScreen or fluorescence polarization; not said which)
[3] = target: 6xHis-CtBP (UniProt Q13363); assay: competition assay of the CtBP/E1A protein interaction (format not said)
[4] = target: 6xHis-CtBP (UniProt Q13363); assay: fluorescence polarization; unlabeled peptide competes with the FITC-labeled 14mer peptide for CtBP

| Substance | IC50 [1] [µM] | IC50 [2] [µM] | IC50 [3] [µM] | IC50 [4] [µM] |
| --- | --- | --- | --- | --- |
| Tat-E1A-flag (peptide) | 7.7 | 1.7 | 1.7 | – |
| Wild-type 14mer E1A peptide … | – | 7.26 | 7.26 | 6 |
